Assay [1] has as its target T1, NTF of c-CDCP1 Cut 3 ectodomain (ending after K369) (human, UniProt Q9H5V8 30-369).
T1 sequence (looked up): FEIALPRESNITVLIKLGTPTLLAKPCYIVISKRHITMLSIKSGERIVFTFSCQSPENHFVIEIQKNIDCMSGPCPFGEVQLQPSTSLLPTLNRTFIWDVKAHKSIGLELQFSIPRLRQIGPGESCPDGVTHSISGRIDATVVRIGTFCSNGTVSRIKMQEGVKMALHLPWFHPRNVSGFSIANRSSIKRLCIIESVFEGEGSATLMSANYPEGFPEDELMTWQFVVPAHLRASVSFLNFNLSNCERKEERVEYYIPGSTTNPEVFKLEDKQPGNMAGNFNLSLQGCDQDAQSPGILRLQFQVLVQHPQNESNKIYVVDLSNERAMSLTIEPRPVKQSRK
The experiment in a line: co-purification after co-transfection.

In assay [2] the target is T2, NTF of c-CDCP1 Cut 1 ectodomain (ending after K365) (human, UniProt Q9H5V8 30-365).
T2 sequence (looked up): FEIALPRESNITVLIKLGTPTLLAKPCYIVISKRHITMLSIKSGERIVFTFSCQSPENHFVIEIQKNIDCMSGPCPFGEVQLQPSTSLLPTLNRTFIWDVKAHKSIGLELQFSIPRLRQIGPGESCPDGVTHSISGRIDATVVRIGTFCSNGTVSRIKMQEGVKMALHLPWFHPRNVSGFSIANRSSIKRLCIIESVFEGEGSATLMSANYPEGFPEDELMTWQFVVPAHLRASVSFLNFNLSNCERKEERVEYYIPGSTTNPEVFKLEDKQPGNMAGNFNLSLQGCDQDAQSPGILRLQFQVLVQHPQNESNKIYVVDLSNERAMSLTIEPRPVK
The experiment in a line: SEC. On the technique in general: Size exclusion chromatography separates by hydrodynamic size, large species first.

The target in assay [3] is T3, NTF of c-CDCP1 Cut 2 ectodomain (ending after R368) (human, UniProt Q9H5V8 30-368).
T3 sequence (looked up): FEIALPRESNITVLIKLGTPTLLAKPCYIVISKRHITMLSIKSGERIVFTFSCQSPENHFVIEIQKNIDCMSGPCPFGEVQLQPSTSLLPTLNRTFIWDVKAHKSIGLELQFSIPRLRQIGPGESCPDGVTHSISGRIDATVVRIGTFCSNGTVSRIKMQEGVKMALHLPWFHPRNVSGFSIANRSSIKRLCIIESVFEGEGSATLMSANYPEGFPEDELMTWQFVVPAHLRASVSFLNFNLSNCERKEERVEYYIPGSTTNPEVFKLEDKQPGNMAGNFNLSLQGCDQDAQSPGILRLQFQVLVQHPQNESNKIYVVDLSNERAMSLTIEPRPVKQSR
The experiment in a line: SEC.

B1: CTF ectodomain of c-CDCP1 Cut 3 (starting after K369) (domain or fragment, human, UniProt Q9H5V8 370-665, looked up)
chain: FVPGCFVCLESRTCSSNLTLTSGSKHKISFLCDDLTRLWMNVEKTISCTDHRYCQRKSYSLQVPSDILHLPVELHDFSWKLLVPKDRLSLVLVPAQKLQQHTHEKPCNTSFSYLVASAIPSQDLYFGSFCPGGSIKQIQVKQNISVTLRTFAPSFQQEASRQGLTVSFIPYFKEEGVFTVTPDTKSKVYLRTPNWDRGLPSLTSVSWNISVPRDQVACLTFFKERSGVVCQTGRAFMIIQEQRTRAEEIFSLDEDVLPKPSFHHHSFWVNISNCSPTSGKQLDLLFSVTLTPRTVD
As to B1, the binding result in assay [1] is on record as “binds”.

B2: CTF ectodomain of c-CDCP1 Cut 1 (starting after K365) (domain or fragment, human, UniProt Q9H5V8 366-665, looked up)
chain: QSRKFVPGCFVCLESRTCSSNLTLTSGSKHKISFLCDDLTRLWMNVEKTISCTDHRYCQRKSYSLQVPSDILHLPVELHDFSWKLLVPKDRLSLVLVPAQKLQQHTHEKPCNTSFSYLVASAIPSQDLYFGSFCPGGSIKQIQVKQNISVTLRTFAPSFQQEASRQGLTVSFIPYFKEEGVFTVTPDTKSKVYLRTPNWDRGLPSLTSVSWNISVPRDQVACLTFFKERSGVVCQTGRAFMIIQEQRTRAEEIFSLDEDVLPKPSFHHHSFWVNISNCSPTSGKQLDLLFSVTLTPRTVD
Take B2: the binding result in assay [2] is recorded as “binds”.

B3: CTF ectodomain of c-CDCP1 Cut 2 (starting after R368) (domain or fragment, human, UniProt Q9H5V8 369-665, looked up)
chain: KFVPGCFVCLESRTCSSNLTLTSGSKHKISFLCDDLTRLWMNVEKTISCTDHRYCQRKSYSLQVPSDILHLPVELHDFSWKLLVPKDRLSLVLVPAQKLQQHTHEKPCNTSFSYLVASAIPSQDLYFGSFCPGGSIKQIQVKQNISVTLRTFAPSFQQEASRQGLTVSFIPYFKEEGVFTVTPDTKSKVYLRTPNWDRGLPSLTSVSWNISVPRDQVACLTFFKERSGVVCQTGRAFMIIQEQRTRAEEIFSLDEDVLPKPSFHHHSFWVNISNCSPTSGKQLDLLFSVTLTPRTVD
Regarding B3, the binding result in assay [3] is on record as “binds”.

Values taken from paper doi:10.1101/2021.06.14.448427 (bioRxiv, 2021).
